Co-IP mass spectrometry count data for two substances are collected here from US20240261333A1, “NOVEL TARGETS FOR ENHANCING ANTI-TUMOR IMMUNITY” (THE BROAD INSTITUTE, INC., priority 2021, published 2024).

The target of experiment [1] is TUBA1C (human) (UniProt Q9BQE3). Description: anti-FLAG co-IP from lysate of C-FLAG B3GNT2 cells, mass spectrometry.
Experiment [2] addresses ELOC (human) (UniProt Q15369). The description is as above.
Experiment [3] addresses SLC25A22 (human) (UniProt Q9H936). Described as above.
The target of experiment [4] is ZRANB2 (human) (UniProt O95218). The experiment is described as above.
The target in experiment [5] is PXN (human) (UniProt P49023). Described as above.
In experiment [6] the target is RPL34 (human) (UniProt P49207). Described as above.
Experiment [7] deals with EEF2 (human) (UniProt P13639). The experiment is described as above.
Experiment [8] has as its target KTN1 (human) (UniProt Q86UP2). The experiment is described as above.
The target of experiment [9] is ACSL3 (human) (UniProt O95573). Described as above.
Experiment [10] addresses HDGFL2 (human) (UniProt Q7Z4V5). Described as above.
The target of experiment [11] is RPL15 (human) (UniProt P61313). The experiment is described as above.
Experiment [12] has as its target TECR (human) (UniProt Q9NZ01). Described as above.
In experiment [13] the target is ATAD3A (human) (UniProt Q9NVI7). The experiment is described as above.
Experiment [14] addresses RRBP1 (human) (UniProt Q9P2E9). The experiment is described as above.
Experiment [15] concerns the target IFI16 (human) (UniProt Q16666). The experiment is described as above.
Experiment [16] concerns the target RPL9 (human) (UniProt P32969). Briefly: co-IP with control IgG, mass spectrometry; lysate of cells with C-FLAG B3GNT2.
For experiment [17], the target named is ARF4 (human) (UniProt P18085). The description is as above.
Experiment [18] deals with ARHGEF2 (human) (UniProt Q92974). The description is as above.
Experiment [19] has as its target RPS27 (human) (UniProt P42677). The description is as above.
In experiment [20] the target is MARS (human) (UniProt P56192). The experiment is described as above.
In experiment [21] the target is RPS4X (human) (UniProt P62701). The experiment is described as above.
Experiment [22] deals with SEL1L (human) (UniProt Q9UBV2). The description is as above.
For experiment [23], the target named is SLC27A4 (human) (UniProt Q6P1M0). Described as above.
Experiment [24] concerns the target PSMD4 (human) (UniProt P55036). The experiment is described as above.
Experiment [25] concerns the target HADHA (human) (UniProt P40939). Described as above.
Experiment [26] has as its target GAPDH (human) (UniProt P04406). The experiment is described as above.
Experiment [27] addresses EIF4A1 (human) (UniProt P60842). Described as above.
Experiment [28] addresses TOR1AIP2 (human) (UniProt Q8NFQ8). Described as above.
In experiment [29] the target is ZC3HAV1 (human) (UniProt Q7Z2W4). Described as above.
In experiment [30] the target is CCT7 (human) (UniProt Q99832). Described as above.
Experiment [31] deals with ILF3 (human) (UniProt Q12906). The experiment is described as above.
The target in experiment [32] is MAGT1 (human) (UniProt Q9H0U3). The description is as above.
The target in experiment [33] is HSPD1 (human) (UniProt P10809). The description is as above.
In experiment [34] the target is NPM1 (human) (UniProt P06748). Described as above.
Experiment [35] concerns the target RRP12 (human) (UniProt Q5JTH9). The description is as above.
Experiment [36] concerns the target STAU2 (human) (UniProt Q9NUL3). The description is as above.
The target of experiment [37] is IPO13 (human) (UniProt O94829). The description is as above.

TOR1AIP2 (human), sequence (Q8NFQ8 2-470 limits assumed): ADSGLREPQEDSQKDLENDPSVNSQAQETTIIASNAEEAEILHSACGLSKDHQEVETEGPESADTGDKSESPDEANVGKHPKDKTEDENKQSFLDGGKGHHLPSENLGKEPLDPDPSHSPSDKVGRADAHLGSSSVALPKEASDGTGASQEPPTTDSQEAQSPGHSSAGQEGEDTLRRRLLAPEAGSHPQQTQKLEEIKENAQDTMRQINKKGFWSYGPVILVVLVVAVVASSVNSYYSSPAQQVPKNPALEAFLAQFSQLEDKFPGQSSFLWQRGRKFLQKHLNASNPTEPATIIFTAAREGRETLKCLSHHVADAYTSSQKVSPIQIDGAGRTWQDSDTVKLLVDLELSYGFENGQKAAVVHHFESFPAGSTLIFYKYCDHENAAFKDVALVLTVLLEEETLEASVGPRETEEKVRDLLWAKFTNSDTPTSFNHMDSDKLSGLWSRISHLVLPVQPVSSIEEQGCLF
ZRANB2 (human), sequence (O95218 other isoform, or with tags, fused parts or gaps limits assumed): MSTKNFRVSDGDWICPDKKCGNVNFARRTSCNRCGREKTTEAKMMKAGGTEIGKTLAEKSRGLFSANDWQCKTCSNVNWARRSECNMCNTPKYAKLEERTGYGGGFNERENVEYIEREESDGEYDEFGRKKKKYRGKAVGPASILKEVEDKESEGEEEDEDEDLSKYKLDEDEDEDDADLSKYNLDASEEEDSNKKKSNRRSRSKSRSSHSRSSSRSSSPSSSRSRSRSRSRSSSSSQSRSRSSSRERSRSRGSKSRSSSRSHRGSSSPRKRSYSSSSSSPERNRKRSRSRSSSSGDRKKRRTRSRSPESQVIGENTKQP
MARS (human), sequence (P56192 whole entry): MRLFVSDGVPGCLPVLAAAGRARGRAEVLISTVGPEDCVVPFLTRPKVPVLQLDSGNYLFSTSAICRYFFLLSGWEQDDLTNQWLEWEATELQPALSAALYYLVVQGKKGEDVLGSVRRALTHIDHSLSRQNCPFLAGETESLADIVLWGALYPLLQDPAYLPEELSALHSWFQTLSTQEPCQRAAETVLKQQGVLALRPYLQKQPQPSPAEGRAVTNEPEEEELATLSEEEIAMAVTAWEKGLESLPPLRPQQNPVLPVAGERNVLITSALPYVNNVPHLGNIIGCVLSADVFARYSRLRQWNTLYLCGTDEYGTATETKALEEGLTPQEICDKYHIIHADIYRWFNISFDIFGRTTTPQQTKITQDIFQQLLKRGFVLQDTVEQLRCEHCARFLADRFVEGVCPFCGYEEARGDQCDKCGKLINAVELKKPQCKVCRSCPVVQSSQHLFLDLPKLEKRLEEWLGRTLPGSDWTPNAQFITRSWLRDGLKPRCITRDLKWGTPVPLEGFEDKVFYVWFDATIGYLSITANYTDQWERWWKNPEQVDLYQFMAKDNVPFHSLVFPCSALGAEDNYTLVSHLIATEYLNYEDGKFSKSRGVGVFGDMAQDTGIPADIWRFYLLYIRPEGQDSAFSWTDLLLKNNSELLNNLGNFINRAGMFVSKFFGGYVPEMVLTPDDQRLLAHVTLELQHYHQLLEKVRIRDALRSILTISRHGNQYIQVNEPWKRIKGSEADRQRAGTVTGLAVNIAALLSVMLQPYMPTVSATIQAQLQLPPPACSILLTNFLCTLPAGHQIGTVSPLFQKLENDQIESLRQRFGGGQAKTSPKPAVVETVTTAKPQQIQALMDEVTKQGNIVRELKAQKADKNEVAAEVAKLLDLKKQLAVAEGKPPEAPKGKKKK
GAPDH (human), sequence (P04406 2-335 limits assumed): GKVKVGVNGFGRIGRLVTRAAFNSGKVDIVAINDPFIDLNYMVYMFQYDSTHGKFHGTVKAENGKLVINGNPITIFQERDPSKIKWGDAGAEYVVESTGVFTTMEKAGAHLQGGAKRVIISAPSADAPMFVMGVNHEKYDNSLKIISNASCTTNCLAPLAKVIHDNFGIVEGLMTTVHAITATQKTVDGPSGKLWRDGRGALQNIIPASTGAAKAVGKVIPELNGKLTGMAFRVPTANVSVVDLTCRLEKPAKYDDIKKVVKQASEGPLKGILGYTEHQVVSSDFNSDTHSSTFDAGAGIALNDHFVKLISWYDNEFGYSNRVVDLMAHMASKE
SLC25A22 (human), sequence (Q9H936 whole entry): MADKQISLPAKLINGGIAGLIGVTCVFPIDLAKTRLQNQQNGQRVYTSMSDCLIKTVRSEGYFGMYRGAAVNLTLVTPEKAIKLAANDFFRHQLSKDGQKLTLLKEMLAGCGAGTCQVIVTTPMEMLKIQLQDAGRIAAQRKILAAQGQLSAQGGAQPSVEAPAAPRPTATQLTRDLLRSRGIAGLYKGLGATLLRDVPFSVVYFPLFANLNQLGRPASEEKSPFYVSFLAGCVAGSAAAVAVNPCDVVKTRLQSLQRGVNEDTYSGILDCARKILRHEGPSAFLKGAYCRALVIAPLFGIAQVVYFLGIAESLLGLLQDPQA
SLC27A4 (human), sequence (Q6P1M0 whole entry): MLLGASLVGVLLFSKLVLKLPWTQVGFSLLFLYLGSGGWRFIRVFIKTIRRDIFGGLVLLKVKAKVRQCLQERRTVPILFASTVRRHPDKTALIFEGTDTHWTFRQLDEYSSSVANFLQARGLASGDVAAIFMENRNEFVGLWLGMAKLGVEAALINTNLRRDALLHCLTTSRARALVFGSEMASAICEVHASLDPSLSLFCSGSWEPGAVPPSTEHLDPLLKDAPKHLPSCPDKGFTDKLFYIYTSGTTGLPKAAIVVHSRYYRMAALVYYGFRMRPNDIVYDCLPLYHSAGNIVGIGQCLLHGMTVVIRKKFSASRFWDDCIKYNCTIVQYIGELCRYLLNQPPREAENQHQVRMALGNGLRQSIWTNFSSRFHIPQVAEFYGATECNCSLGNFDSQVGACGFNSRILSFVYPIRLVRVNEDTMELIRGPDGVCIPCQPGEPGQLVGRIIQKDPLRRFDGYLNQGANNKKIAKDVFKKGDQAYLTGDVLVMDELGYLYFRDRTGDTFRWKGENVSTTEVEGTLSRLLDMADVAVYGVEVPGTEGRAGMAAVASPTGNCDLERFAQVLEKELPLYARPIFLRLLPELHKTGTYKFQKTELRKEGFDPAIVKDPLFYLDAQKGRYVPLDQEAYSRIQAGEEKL
ARF4 (human), sequence (P18085 2-180 limits assumed): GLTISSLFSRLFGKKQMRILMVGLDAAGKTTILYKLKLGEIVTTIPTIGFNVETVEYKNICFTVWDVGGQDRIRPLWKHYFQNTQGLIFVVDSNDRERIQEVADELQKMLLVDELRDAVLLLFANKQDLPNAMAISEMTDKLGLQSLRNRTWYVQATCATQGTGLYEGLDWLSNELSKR
IFI16 (human), sequence (Q16666 other isoform, or with tags, fused parts or gaps limits assumed): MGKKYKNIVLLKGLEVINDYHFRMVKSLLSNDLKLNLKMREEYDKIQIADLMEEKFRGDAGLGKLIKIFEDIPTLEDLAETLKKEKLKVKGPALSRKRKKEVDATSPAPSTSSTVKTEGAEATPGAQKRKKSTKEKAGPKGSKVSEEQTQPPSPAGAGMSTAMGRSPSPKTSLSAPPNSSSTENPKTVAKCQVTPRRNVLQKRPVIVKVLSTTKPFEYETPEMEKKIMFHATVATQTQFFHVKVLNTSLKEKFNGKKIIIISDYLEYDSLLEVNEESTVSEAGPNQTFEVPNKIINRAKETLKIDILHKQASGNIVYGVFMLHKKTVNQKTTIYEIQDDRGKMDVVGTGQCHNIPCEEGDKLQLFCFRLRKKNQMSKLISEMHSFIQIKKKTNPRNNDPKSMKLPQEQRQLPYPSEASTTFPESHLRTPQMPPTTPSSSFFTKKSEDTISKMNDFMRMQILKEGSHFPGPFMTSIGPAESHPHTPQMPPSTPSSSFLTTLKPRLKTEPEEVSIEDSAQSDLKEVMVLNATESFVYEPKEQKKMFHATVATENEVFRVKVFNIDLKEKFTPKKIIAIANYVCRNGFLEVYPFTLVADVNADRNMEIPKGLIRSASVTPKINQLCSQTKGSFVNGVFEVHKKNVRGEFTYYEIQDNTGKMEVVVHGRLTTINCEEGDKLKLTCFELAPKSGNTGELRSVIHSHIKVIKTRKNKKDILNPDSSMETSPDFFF
MAGT1 (human), sequence (Q9H0U3 30-335 limits assumed): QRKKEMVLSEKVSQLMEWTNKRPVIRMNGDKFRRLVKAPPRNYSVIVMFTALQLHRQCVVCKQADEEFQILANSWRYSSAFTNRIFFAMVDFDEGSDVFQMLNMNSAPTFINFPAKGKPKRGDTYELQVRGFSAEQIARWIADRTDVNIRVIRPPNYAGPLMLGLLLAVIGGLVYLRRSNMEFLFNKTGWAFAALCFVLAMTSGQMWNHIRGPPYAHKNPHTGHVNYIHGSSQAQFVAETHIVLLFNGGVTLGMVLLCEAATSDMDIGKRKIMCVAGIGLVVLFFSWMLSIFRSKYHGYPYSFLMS
CCT7 (human), sequence (Q99832 45-543 limits assumed): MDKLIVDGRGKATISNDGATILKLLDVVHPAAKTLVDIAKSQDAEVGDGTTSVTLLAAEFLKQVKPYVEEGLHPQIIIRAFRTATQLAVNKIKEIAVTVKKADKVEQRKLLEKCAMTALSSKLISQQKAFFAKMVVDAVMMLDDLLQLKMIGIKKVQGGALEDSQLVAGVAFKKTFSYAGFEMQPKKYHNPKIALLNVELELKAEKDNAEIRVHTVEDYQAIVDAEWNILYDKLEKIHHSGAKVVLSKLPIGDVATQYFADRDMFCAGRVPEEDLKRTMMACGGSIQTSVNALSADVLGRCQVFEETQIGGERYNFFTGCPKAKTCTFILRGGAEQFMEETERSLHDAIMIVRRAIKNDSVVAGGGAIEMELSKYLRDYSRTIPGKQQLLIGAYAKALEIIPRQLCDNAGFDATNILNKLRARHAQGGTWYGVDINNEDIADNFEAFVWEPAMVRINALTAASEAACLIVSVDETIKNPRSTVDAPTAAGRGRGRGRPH
ELOC (human), sequence (Q15369 whole entry): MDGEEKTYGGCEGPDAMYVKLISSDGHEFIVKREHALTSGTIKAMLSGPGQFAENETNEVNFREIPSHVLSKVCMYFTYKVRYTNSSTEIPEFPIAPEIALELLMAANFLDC

“C-terminal FLAG tagged B3GNT2 (from UniProt Q9NY97 1-397) (enzyme)”: the co-IP mass spectrometry count came out at 63 in [1]; 2 in [2]; 2 in experiment [3]; 3 in experiment [4]; 0 in [5]; 2 in experiment [6]. The co-IP mass spectrometry count in experiment [7] is 5; in [8] it was 2; in experiment [9] it was 5; in experiment [10], 2; in [11], 15; in experiment [12] it was 9. Besides, the co-IP mass spectrometry count in [13] turned out to be 9; in experiment [14], 16; in [15], 2.
For the substance “IgG control (Millipore Sigma 12-371) (antibody)”, the co-IP mass spectrometry count stood at 0 in experiment [16]; 0 in experiment [17]; 0 in experiment [18]; 0 in experiment [19]; 0 in experiment [20]; 7 in [21]. Also, the co-IP mass spectrometry count in experiment [22] amounted to 0; in experiment [23], 0; in experiment [24], 0; in [25], 0; in experiment [26], 6; in experiment [27], 0. For the same substance, the co-IP mass spectrometry count in experiment [28] is 0; in [29] it was 0; in experiment [30] it was 0; in experiment [31], 0; in experiment [32], 0; in [33], 2. Besides, the co-IP mass spectrometry count in experiment [34], in experiment [35], in experiment [36] and in experiment [37] was 0 throughout.
